Substitutions are numbered along the chain they refer to.
What was measured:
murine TNFα [1] = target: T1, murine TNFα (murine, UniProt P06804 80-235); test: cell-based or functional assay
T1 sequence (looked up): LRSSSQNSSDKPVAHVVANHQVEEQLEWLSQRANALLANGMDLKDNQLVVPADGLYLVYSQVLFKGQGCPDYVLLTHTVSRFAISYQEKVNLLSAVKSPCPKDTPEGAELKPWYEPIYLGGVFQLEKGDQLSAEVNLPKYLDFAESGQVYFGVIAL

murine TNFα [2] = target: T1, murine TNFα; test: ELISA, TNFα binding activity (Example 2.2.3.3)
[3] = target: T2, Recombinant Human IL-6 sR (human, UniProt P08887 20-358); test: direct bind ELISA, antigen coated on plate
T2 construct: domain: IL-6 sR; Bought reagent; also called IL-6R
T2 sequence (looked up): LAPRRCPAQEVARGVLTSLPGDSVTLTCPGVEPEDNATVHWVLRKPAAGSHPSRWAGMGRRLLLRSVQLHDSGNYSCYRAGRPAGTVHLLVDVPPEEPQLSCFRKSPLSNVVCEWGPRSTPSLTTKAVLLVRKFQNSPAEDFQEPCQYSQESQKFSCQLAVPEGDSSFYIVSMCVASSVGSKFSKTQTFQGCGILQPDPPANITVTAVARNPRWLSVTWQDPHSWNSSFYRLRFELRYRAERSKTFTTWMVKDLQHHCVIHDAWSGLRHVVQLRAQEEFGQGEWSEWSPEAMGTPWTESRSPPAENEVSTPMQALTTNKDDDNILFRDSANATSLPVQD
Procedure: (§1) Enzyme Linked Immunosorbent Assays to screen for antibodies that bind a desired target antigen were performed as follows. High bind ELISA plates (Corning Costar #3369, Acton, Mass.) were coated with 100 μL/well of 10 μg/ml of desired target antigen (R&D Systems, Minneapolis, Minn.) or desired target antigen extra-cellular domain/FC fusion protein (R&D Systems, Minneapolis, Minn.) or monoclonal mouse anti-polyHistidine antibody (R&D Systems # MAB050, Minneapolis, Minn.) in phosphate buffered saline (10×PBS, Abbott Bioresearch Center, Media Prep# MPS-073, Worcester, Mass.) overnight at 4° C. Plates were washed four times with PBS containing 0.02% Tween 20. Plates were blocked by the addition of 300 μL/well blocking solution (non-fat dry milk powder, various retail suppliers, diluted to 2% in PBS) for ½ hour at room temperature. Plates were washed four times after blocking with PBS containing 0.02% Tween 20.
(§2) Plates were washed 4 times with PBS containing 0.02% Tween 20.
(§3) One hundred microliters of enhanced TMB solution (Neogen Corp. #308177, K Blue, Lexington, Ky.) was added to each well and incubated for 10 minutes at room temperature. The reaction was stopped by the addition of 50 μL 1N sulphuric acid.

[4] = target: T2, Recombinant Human IL-6 sR; test: BIACORE SPR, antibody captured, antigen in flow
Procedure: (§4) The BIACORE assay (Biacore, Inc, Piscataway, N.J.) determines the affinity of antibodies or DVD-Ig with kinetic measurements of on-rate and off-rate constants. […] All chemicals are obtained from Biacore® AB (Uppsala, Sweden) or otherwise from a different source as described in the text. For example, approximately 5000 RU of goat anti-mouse IgG, (Fcγ), fragment specific polyclonal antibody (Pierce Biotechnology Inc, Rockford, Ill.) diluted in 10 mM sodium acetate (pH 4.5) is directly immobilized across a CM5 research grade biosensor chip using a standard amine coupling kit according to manufacturer's instructions and procedures at 25 μg/ml. Unreacted moieties on the biosensor surface are blocked with ethanolamine. Modified carboxymethyl dextran surface in flowcell 2 and 4 is used as a reaction surface. Unmodified carboxymethyl dextran without goat anti-mouse IgG in flow cell 1 and 3 is used as the reference surface. For kinetic analysis, rate equations derived from the 1:1 Langmuir binding model are fitted simultaneously to association and dissociation phases of all eight injections (using global fit analysis) with the use of Biaevaluation 4.0.1 software. Purified antibodies or DVD-Ig are diluted in HEPES-buffered saline for capture across goat anti-mouse IgG specific reaction surfaces. Antibodies or DVD-Ig to be captured as a ligand (25 μg/m) are injected over reaction matrices at a flow rate of 5 μl/min. The association and dissociation rate constants, kₒₙ (M⁻¹s⁻¹) and koff (s⁻¹) are determined under a continuous flow rate of 25 μl/min. Rate constants are derived by making kinetic binding measurements at different antigen concentrations ranging from 10-200 nM. The equilibrium dissociation constant (M) of the reaction between antibodies or DVD-Igs and the target antigen is then calculated from the kinetic rate constants by the following formula: KD=koff/kₒₙ. Binding is recorded as a function of time and kinetic rate constants are calculated.

Recombinant Human IL-15 = Recombinant Human IL-15 (human, UniProt P40933 49-162); test: BIACORE SPR, DVD-Ig captured, antigen in flow (N-terminal VD)
Recombinant Human IL-15, sequence (P40933 49-162 limits assumed): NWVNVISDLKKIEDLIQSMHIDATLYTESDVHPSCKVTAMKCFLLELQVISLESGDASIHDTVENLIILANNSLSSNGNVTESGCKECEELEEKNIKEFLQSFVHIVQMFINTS
Procedure: as §4

[5] = target: T2, Recombinant Human IL-6 sR; test: direct bind ELISA, antigen coated on plate (C-terminal VD)
Procedure: as §1, §2, §3

[6] = target: T2, Recombinant Human IL-6 sR; test: BIACORE SPR, DVD-Ig captured, antigen in flow (C-terminal VD)
Procedure: as §4

Recombinant Human β-NGF = Recombinant Human β-NGF (human, UniProt P01138 122-239, limits assumed); test: BIACORE SPR, DVD-Ig captured, antigen in flow (C-terminal VD); BIACORE, DVD-Ig captured, NGF in flow, 25 C; C-terminal VD
Recombinant Human β-NGF, sequence (P01138 122-239 limits assumed): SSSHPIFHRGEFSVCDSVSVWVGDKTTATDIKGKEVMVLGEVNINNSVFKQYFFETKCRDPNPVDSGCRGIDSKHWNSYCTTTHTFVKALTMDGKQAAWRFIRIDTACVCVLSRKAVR
Procedure: as §4

B1: 2B5-hSL-8C11 anti-murine TNFα/anti-PGE2 DVD-Ig with human short linker (bispecific antibody)
VH: QVQLQQSGPELVRPGSSVKISCKASGYTFTKYWLGWVKQRPGHGLEWIGDIYPGYDYTHYNEKFKDKATLTVDTSSSTAYMQLSSLTSEDSAIYYCARSDGSSTYWGQGTLVTVSAASTKGPEFQLQQSGPELVKPGASVRISCKASGYSFTDYNMNWVKQSNGKSLEWVGVINPNYGSSTYNQKFKGKATLTVDQSSSTAYMQLNSLTSEDSAVYYCARKWGQLGRGFFDVWGTGTTVTVSS
VL: DVLMTQTPLSLPVSLGDQASISCTSSQNIVHSNGNTYLEWYLQRPGQSPKLLIYKVSNRFSGVPDRFSGSGSGTVFTLKISRVEAEDLGVYYCFQVSHVPYTFGGGTKLEIKRTVAAPQIVLSQSPAILSASPGEKVTMTCRASSSVSYMHWFQQKPGSSPKPWIYATSNLASGVPARFSGSGSGTSYSLTISRVEAEDAATYYCQQWSSSPLTFGAGTKLELKR
notes: DVD-Ig; Outer domain is 2B5 (PGE2), inner domain is 8C11 (murine TNFα); also called 2B5-huSL-8C11
B1 was tested, and the “IC50, L929 assay (TNFα-induced cell death)” value (shortened to “IC50, L929 assay”) (murine TNFα [1]) was 4.39 nM and the IC50 (murine TNFα [2]) was 0.234 nM.

B2: AB054 anti-IL-6R parent antibody (antibody, human IgG1, V domains shown)
VH: EVQLQESGPGLVRPSQTLSLTCTVSGYSITSDHAWSWVRQPPGRGLEWIGYISYSGITTYNPSLKSRVTMLRDTSKNQFSLRLSSVTAADTAVYYCARSLARTTAMDYWGQGSLVTVSS
VL: DIQMTQSPSSLSASVGDRVTITCRASQDISSYLNWYQQKPGKAPKLLIYYTSRLHSGVPSRFSGSGSGTDFTFTISSLQPEDIATYYCQQGNTLPYTFGQGTKVEIKR
Binder B2 has an EC50 [3] of 1.75 nM, a Kd [4] of 0.448 nM and a koff [4] of 0.00016 s⁻¹. The kon [4] was 357000 M⁻¹ s⁻¹.

B3: DVD154 (IL-15 / PGE2 DVD-Ig) (bispecific antibody)
VH: EVQLVQSGAEVKKPGESLKISCKVSGYFFTTYWIGWVRQMPGKGLEYMGIIYPGDSDTRYSPSFQGQVTISADKSISTAYLQWSSLKASDTAMYYCARGGNWNCFDYWGQGTLVTVSSASTKGPEVQLVQSGAEVKKPGASVKVSCKASGYTFTKYWLGWVRQAPGQGLEWMGDIYPGYDYTHYNEKFKDRVTLTTDTSTSTAYMELRSLRSDDTAVYYCARSDGSSTYWGQGTLVTVSS
VL: EIVLTQSPGTLSLSPGERATLSCRASQSVSSSYLAWYQQKPGQAPRLLIYGASRRATGIPDRFSGSGSGTDFTLTISRLEPEDFAVYYCQRYGSSHTFGQGTKLEISRTVAAPDVLMTQTPLSLPVTPGEPASISCTSSQNIVHSNGNTYLEWYLQKPGQSPQLLIYKVSNRFSGVPDRFSGSGSGTDFTLKISRVEAEDVGVYYCFQVSHVPYTFGGGTKVEIKR
notes: Outer domain is AB049 (IL-15), inner domain is AB048 (PGE2); also called VD154H; VD154L
Work on B3 yielded a Kd (Recombinant Human IL-15) of 4.89 nM, a koff (Recombinant Human IL-15) of 0.00198 s⁻¹ and a kon (Recombinant Human IL-15) of 404000 M⁻¹ s⁻¹.

B4: anti-TNFα monoclonal antibody clone 8C11 (antibody, V domains shown)
VH: EFQLQQSGPELVKPGASVRISCKASGYSFTDYNMNWVKQSNGKSLEWVGVINPNYGSSTYNQKFKGKATLTVDQSSSTAYMQLNSLTSEDSAVYYCARKWGQLGRGFFDVWGTGTTVTVSS
VL: QIVLSQSPAILSASPGEKVTMTCRASSSVSYMHWFQQKPGSSPKPWIYATSNLASGVPARFSGSGSGTSYSLTISRVEAEDAATYYCQQWSSSPLTFGAGTKLELKR
notes: Murine hybridoma antibody against murine TNFα; also called 8C11-1E10; anti-mouse TNF monoclonal antibody
In the case of B4, the “IC50, L929 assay” value (murine TNFα [1]) is reported as 5.85 nM and the IC50 (murine TNFα [2]) is reported as 0.201 nM.

B5: DVD151 (PGE2 / IL-6R DVD-Ig) (bispecific antibody, human IgG1)
VH: EVQLVQSGAEVKKPGASVKVSCKASGYTFTKYWLGWVRQAPGQGLEWMGDIYPGYDYTHYNEKFKDRVTLTTDTSTSTAYMELRSLRSDDTAVYYCARSDGSSTYWGQGTLVTVSSASTKGPEVQLQESGPGLVRPSQTLSLTCTVSGYSITSDHAWSWVRQPPGRGLEWIGYISYSGITTYNPSLKSRVTMLRDTSKNQFSLRLSSVTAADTAVYYCARSLARTTAMDYWGQGSLVTVSS
VL: DVLMTQTPLSLPVTPGEPASISCTSSQNIVHSNGNTYLEWYLQKPGQSPQLLIYKVSNRFSGVPDRFSGSGSGTDFTLKISRVEAEDVGVYYCFQVSHVPYTFGGGTKVEIKRTVAAPDIQMTQSPSSLSASVGDRVTITCRASQDISSYLNWYQQKPGKAPKLLIYYTSRLHSGVPSRFSGSGSGTDFTFTISSLQPEDIATYYCQQGNTLPYTFGQGTKVEIKR
notes: Outer domain is AB048 (PGE2), inner domain is AB054 (IL-6R); also called VD151H; VD151L
B5 was tested, and the EC50 [5] was 26.5 µM, the Kd [6] was 5.94 nM and the koff [6] was 0.00015 s⁻¹. It also gave a kon [6] of 25300 M⁻¹ s⁻¹.

B6: DVD163 (PGE2 / NGF DVD-Ig) (bispecific antibody)
VH: EVQLVQSGAEVKKPGASVKVSCKASGYTFTKYWLGWVRQAPGQGLEWMGDIYPGYDYTHYNEKFKDRVTLTTDTSTSTAYMELRSLRSDDTAVYYCARSDGSSTYWGQGTLVTVSSASTKGPQVQLQESGPGLVKPSETLSLTCTVSGFSLIGYDLNWIRQPPGKGLEWIGIIWGDGTTDYNSAVKSRVTISKDTSKNQFSLKLSSVTAADTAVYYCARGGYWYATSYYFDYWGQGTLVTVSS
VL: B5 VL with D146S, S149N, Y150N, L172F, G209E, N210H, V222L
notes: Outer domain is AB048 (PGE2), inner domain is AB020 (NGF); also called VD163H; VD3163L
B6 gave a Kd (Recombinant Human β-NGF) of 0.122 nM, a koff (Recombinant Human β-NGF) of 1.03e-06 s⁻¹ and a kon (Recombinant Human β-NGF) of 8400 M⁻¹ s⁻¹.

B7: 2B5-hLL-8C11 anti-murine TNFα/anti-PGE2 DVD-Ig with human long linker (bispecific antibody, human IgG1)
VH: QVQLQQSGPELVRPGSSVKISCKASGYTFTKYWLGWVKQRPGHGLEWIGDIYPGYDYTHYNEKFKDKATLTVDTSSSTAYMQLSSLTSEDSAIYYCARSDGSSTYWGQGTLVTVSAASTKGPSVFPLAPEFQLQQSGPELVKPGASVRISCKASGYSFTDYNMNWVKQSNGKSLEWVGVINPNYGSSTYNQKFKGKATLTVDQSSSTAYMQLNSLTSEDSAVYYCARKWGQLGRGFFDVWGTGTTVTVSS
VL: DVLMTQTPLSLPVSLGDQASISCTSSQNIVHSNGNTYLEWYLQRPGQSPKLLIYKVSNRFSGVPDRFSGSGSGTVFTLKISRVEAEDLGVYYCFQVSHVPYTFGGGTKLEIKRTVAAPSVFIFPPQIVLSQSPAILSASPGEKVTMTCRASSSVSYMHWFQQKPGSSPKPWIYATSNLASGVPARFSGSGSGTSYSLTISRVEAEDAATYYCQQWSSSPLTFGAGTKLELKR
notes: DVD-Ig; Outer domain is 2B5 (PGE2), inner domain is 8C11 (murine TNFα)
For B7, the “IC50, L929 assay” value (murine TNFα [1]) was 0.088 nM and the IC50 (murine TNFα [2]) was 0.256 nM.

— patent US20150017095A1 (AbbVie / Abbott, published 2015)
